In this experiment the target is bovine rhodopsin (bovine) (UniProt P02699).
Chain of UniProt P02699 (P02699 whole entry): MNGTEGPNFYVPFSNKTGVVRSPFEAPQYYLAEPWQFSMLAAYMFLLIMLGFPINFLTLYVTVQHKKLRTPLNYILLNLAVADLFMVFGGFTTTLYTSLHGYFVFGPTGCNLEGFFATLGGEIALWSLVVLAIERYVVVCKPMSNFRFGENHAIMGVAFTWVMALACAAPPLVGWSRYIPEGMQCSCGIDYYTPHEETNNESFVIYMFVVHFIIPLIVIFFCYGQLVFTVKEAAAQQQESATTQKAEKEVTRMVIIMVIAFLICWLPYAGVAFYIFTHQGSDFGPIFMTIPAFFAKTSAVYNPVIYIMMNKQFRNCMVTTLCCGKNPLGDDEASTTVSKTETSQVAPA

Substance Gso (Gs subunit chimera with a Go tail) returned a light-evoked second messenger (cAMP) plate reader assay in transfected HEK293 cells, G-protein subtype profile of bovine rhodopsin (Supplementary Figure S5) of 10%.
